Experimental data reported in the nanobody polyreactivity screen of Harvey et al. (2022).

Experiment: yeast display, Sf9 membrane polyspecificity reagent, FACS + sequencing; frameworks hold sequencing errors
In short: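 Polyreactivity labels are assigned by the sorting gate from which each nanobody was recovered. The gates were low and high (top ~1%), set on anti-HA fluorescence for expression and streptavidin fluorescence for reagent binding. Before sorting, galactose-induced (36–48 hours) yeast display cells were stained for 1 hour at 4 °C with 10% biotinylated, detergent-solubilized Sf9 membrane reagent.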
For “QVQLQESGGGLVQAGGTLRLSCAASGSFSADEDMGWYRQEQGKEREFVAGISVGGNTNYADSVKGRFTISRENAKNTVYLQINSLKPEDTAVYYCAVLQDVYDALDYWAQGTQVTVSS”, the “polyreactivity (PSR sort gate)” value was “high polyreactivity”.
In the case of “QVQLEESGGGLVQAGGSLRLSCAASGITFLNYAMGWYRQAPGKERELVAAISWSGGRTYYADSVKGRFTISRDNAKNTVYLQMNSLKPEDTAVYYCAVRGSWYSEHNYWGQGTQVTVSS”, the “polyreactivity (PSR sort gate)” value is reported as “high polyreactivity”.
In the case of “QVQLVESGGGLVQAGGSLRLSCAASGSIFQQYAMGWYRQAPGKERELVASINTSGDGTYYADSVKGRFTISRDNAKNSVYLQMNSLKPEDTAVYYCAVEGIFEQLNRMDYWGQGTQVTVSS”, the “polyreactivity (PSR sort gate)” value is reported as “low polyreactivity”.
For “QVQLVESGGGLVQAGGSLRLSCAASGRIFQYNTMGWYRQAPGKERELVAGISSGGSTNYADSVKGRFTISRDNAKNTVYLQMNSLKPEDTAVYYCAARAKRYNVRFDYWGQGTQVTVSS”, the “polyreactivity (PSR sort gate)” value was “high polyreactivity”.
With “QVQLVESGGGLVQAGGSLRLSCAASGSTIPTNAMGWYSQAPGKERELVAAITSTGSTYADSVKGRFTISRDNAKNTDYLQMNSLKPEDTAVYYCAADTQWTTPYDYWGQGTPVTVSS” the “polyreactivity (PSR sort gate)” value was “low polyreactivity”.
In the case of “QVQLVESGGGLVQAGGSLRLSCAASGSILGYYAMGWYRHAPRKERELVASITGNGGSTYYADSVKGRFTISRDNAKNTVYLQMISLKPEDTAVYYCAKRVGPYKLGEYDYWGQGTQVTVSS”, the “polyreactivity (PSR sort gate)” value is reported as “high polyreactivity”.
For “QVQLVESGGGLVQAGGSLRLSCAASGLIFYSNAMGWYRQAPGKEREFVAAITRRGGSTYYADSVKGRFTISRDNAKNTVYLQMNSLKPEDTAVYYCNARYYHKRSTRVIFQYDYWGQGTQVTVSS”, the “polyreactivity (PSR sort gate)” value was “high polyreactivity”.
For “QVQLVESGGGLVQAGGSLRVSCAASGSTFSAYAMGWYRPAPGKERELVAAISASGGSTYYADSVKGRFTISRDNAKNTVSLQMNSLKPEDTAVYYCNADRWKYELDYWGQGTQVTVSS”, the “polyreactivity (PSR sort gate)” value was “high polyreactivity”.
In the case of “QVQLVESGAGLVQAGGSRRLSCAASGSIFGVNAMGGYRQAPGKERELVASITGGDSTNYADSVKGRFTISRDNAKNTVYLQMNSLKPEDTAFYYCAKDHYYRYEEGDYWGQGTQVTVSS”, the “polyreactivity (PSR sort gate)” value is reported as “low polyreactivity”.
For “QGQLVESGGGLVQAGVSLRLSCAASGSIFGFYGMGWYRQAPGKERELVAAISYRGGNTYYADSVKGRFTSSRDNAKNTVFLQKNSLKPEDTAVYYCNSMWKHGAYRGAYGYWGQGTQVTVSS”, the “polyreactivity (PSR sort gate)” value was “high polyreactivity”.
In the case of “QVQLVESGGGLVQAGGSLRLSCAASGFTFQAYAMGWYRQAPGKERELVAAISKSGGSTYYADSVKGRFTISRDNAKNTVYLQMNSLKPEDTAVYYCAARSWERYRAFIYWGQGTQVTVSS”, the “polyreactivity (PSR sort gate)” value is reported as “high polyreactivity”.
With “QVQLVESGGGLVQAGGSLRLICAASGVIFLRYAMGWYRQAPGKERELVAAISSSGDITYYADSVKGRFTISRDNAKNTVYLQMYSLKPEDTAVYYCAATVGLWEYGYWGQGTQVTVSS” the “polyreactivity (PSR sort gate)” value was “low polyreactivity”.
With “QVQLVESGGGLVQAGGSLRLSCAASGSIFKVNTMGWHRQAPGTERELVAAISSSDDSTYYADSVKGRFTISRDNAKNTVYLQMNSLKPEDTAVYYCAADGSSVDSGGINDEYWGQGTQVTVSS” the “polyreactivity (PSR sort gate)” value was “low polyreactivity”.
With “QVQLEESGGGLVQAGGSLRLSCAASGRIFWYYDMGWYRQAPGKERELVAAISQRGGSTYYADSVKGRFTISRDNAKNTVYLQMNSLKAEDTAVYYCAKRNPYWATREYWGQGTQVTVSS” the “polyreactivity (PSR sort gate)” value was “high polyreactivity”.
For “QVQLVESGGGLVQAGGSLRLSCAASGITFQRYVMGWYRQAPGKERELVAAISFSGSSTYYADSVKGRFTISRDNAKNTVYLQMNSLKPEDTAVYYCAADGSVPKYVPYPRYYGYGYWGQGTQVTVSS”, the “polyreactivity (PSR sort gate)” value was “high polyreactivity”.
For “QVQRVESGGGLLQAGRSLRLSCAASGTIFYHYAMGWYRQAPGKERELVAAMTRSGGSTYYADSVKGRFTISRDNAKNTVYLQMNSLNPEDTAVYYCAKDPDSYNFLTSNWYDYWGQGTQVTVCS”, the “polyreactivity (PSR sort gate)” value was “low polyreactivity”.
In the case of “QVQLVESGGGLVQAGGSLRLSCAASGRSIRIYAMGWYRQAPGKERELVAAIRWSGGTTYYADSVKGRFTISRDNAKNTVYLQMNSLKPEDTAVYYCAADSTNRYDYWGQGTQVTVSS”, the “polyreactivity (PSR sort gate)” value is reported as “high polyreactivity”.
With “QVQLVESGGGLVKAGGSLRFSCAASVITFVWYAMGWYRQAPGKERDLVASIDSSVSTNYADSVKGRFTISRDNEKNTVYFQMNSLKPEDTAVYYCAAYFFFGQVGGMEYWGQGTQVTVSS” the “polyreactivity (PSR sort gate)” value was “low polyreactivity”.
In the case of “QGQIVESWGGLVQAGGSLRLSCAASGTFFTYMGWYRQAPGKERELVAAIRNGGSTNYADSVKGRCTISGDNAKNTVYLQMHSLKPEDTAVYYCAARVTYSRGYRGGSRTKYDSWGQGTQVTVSS”, the “polyreactivity (PSR sort gate)” value is reported as “low polyreactivity”.
With “QVQLVESGGGLVQAGGSLRLSCAASGIIFTYAMGWYRQAPGKERELVAAIDWRGGRTYYADTVKGRFTISRDNAKNTVYLEMNSLKPEDTAVYYCAARLPGGTYYWGQGTQVTVSS” the “polyreactivity (PSR sort gate)” value was “high polyreactivity”.
For “QVQLVESGGGLVQAGGSLRLSCAASGSIFRRNAMGWYRQAPGKERELVAAISYSGGSTYYADSVKGRFTISRDNAKNTVYLQMNSLKPEDTAVYYCAADLYYGFGGYYYWGQGTQVTVSS”, the “polyreactivity (PSR sort gate)” value was “high polyreactivity”.
With “QVQLVESGGGLVQAGGSLRLSCAASGFTFYDYVMGWYRQAPGKERELVASISARTGSTYYADSVKGRFTISRDNAKNTVYLQMNSLQPEDTAVYYCAADDGQYYRTEYDYWGQGTQVTVSS” the “polyreactivity (PSR sort gate)” value was “low polyreactivity”.
With “QVQLVESGGGLVQAGGSLRLSSAASGIIFITYAMGWYRQAPGKDRELVAVISFSGGGTYADSVKGRFTISRDNAKNTVYLQMNSLKPEDTAVYYCAARRHSVGDYWLIYDYWGQGTQVTVSS” the “polyreactivity (PSR sort gate)” value was “low polyreactivity”.
With “QVQLVESGGGLVQAGGSLRLSCAASGITFQRYAMGWYRQAPGKERELVAAITRGGSTNYADSVKGRFTISRDNAKNTVYLQMNSLKPEDTAVYYCAAGYKITSVYGFYYWGQGTQVTVSS” the “polyreactivity (PSR sort gate)” value was “high polyreactivity”.
In the case of “QVQLVESGGGLVQAGGSLRLSCAASGSTFIRYAMGWYRQAPGKERELVAAITSGGRTNYADSVKGRFTISRDNAKNTVYLQMNSLKPEDTAVYYCAKLRWVYGRQTLMDYWGQGTQVTVSS”, the “polyreactivity (PSR sort gate)” value is reported as “high polyreactivity”.
With “QVQLVESGGGLVQAGGSLRLSCAASGFIFNYYLGWYRQAPGKEREWVAAISQSGDSTYYADSVKGRFTISRDNAKNTVYLQMNSQKPEDTAVYYCAAETSPDYRGVTYYYWGQGTQVTLSS” the “polyreactivity (PSR sort gate)” value was “high polyreactivity”.
In the case of “QVQLVESGGGLVQAGGSLRLSCAASGFTFISYGMGWYRQAPGKEREFVAAISYSGTGTYYADSVKVRFTISRDNAKNTVYLQMNSLKPEDTAVYYCAVYSRDFRRYDYWGQGTQVTVSS”, the “polyreactivity (PSR sort gate)” value is reported as “high polyreactivity”.
With “QVQLVESGGGLVQAGGSLRLSCAASGRILTYYAMGWYRQAPGKERELVASISSNGGTYYADSVKGRFTISRDNAKNTVYLQMNSLKPEDTAVYYCNAKRVARYQYGASYNYWGQGTQVTVSS” the “polyreactivity (PSR sort gate)” value was “high polyreactivity”.
For “QVQLVESGGGLVQAGGSLRLSCAASGSMFITYTMGWYRQAPGKERELVAAITWDGGSTYYADSVKGRFTISRDNAKNTVYLQMNSLKPEDTAVYYCAKDVILVWPYATGRDYWGQGTQVTVSS”, the “polyreactivity (PSR sort gate)” value was “low polyreactivity”.
For “QVQLVESGGGLVQAGGSLRVSCAPSGIIFGGNVMGWYRQAPGKERELVAGITSTGGRTYYADSVKGRFTISRDNAKNTVYLQMNSLKPEDTAVYYCAAVSTLVRGNFNRIRYGYWGHGTQVTVSS”, the “polyreactivity (PSR sort gate)” value was “high polyreactivity”.
With “QVQLVESGGGLVQAGGSLRLSCAASGFTLRAYAMGWYRQAPGKERELVAAISSGGSTYADSVKGRFTISRDNAKNTVYLQMNSLKPEDTAVYYCAADGSKLFYSKFRYVQYGYWGQGTQVTVSS” the “polyreactivity (PSR sort gate)” value was “high polyreactivity”.
With “QVQLVESGGGLVQAGGSLRLSCAASGRTFGVNTMGWYRQAPGKERELVASISTSGGSTYADSVKGRFTISRDNAKNTVYLQMNSLKPEDTAVYYCAKDTDAVYDEYDSWGQGTQVTVSS” the “polyreactivity (PSR sort gate)” value was “low polyreactivity”.
With “QVQLVESGGGFFQAGGSLRLSCAASGSTFVYNAMGWYRQAPGKERELVAAISRNGGRTYYADSVKGRFTISRDNAKNTVYFQMNSLKPEDTAVYYCAADYRVQLRKEYDYWGQGTQVTVSS” the “polyreactivity (PSR sort gate)” value was “high polyreactivity”.
In the case of “QVQLVESGGGIVQAGGSLRLSCAASGNTFHYYVMGWYRQAPGKERELVAAITYTGGSTYYADSVKGRFTISRDNAKNTVYLQMISLKPEDTAVYYCAAGFSPASQLDYWGQGTQVTVSS”, the “polyreactivity (PSR sort gate)” value is reported as “low polyreactivity”.
With “QVQLVESGGGLVQAGGSLRLSCAASGFIFRYYAMGWYRQAPGKERELVAGISSSGASTYYADSVKGRFTISRDNAKYTVYLLMNSLKPEDTAVYYCAARRQRDRYGYWGQGTQVTVSS” the “polyreactivity (PSR sort gate)” value was “high polyreactivity”.
In the case of “QVQLVESGGCLVQAGGSLRLSCAASGSTLVIYAMGWYRQAPGKESELVAAINFSDGSTSYADSVKGRFTISRDNAKNTVYLQMNSLKPEDTAVYYCAADWWYGYSNYDYWGQGTQVTVSS”, the “polyreactivity (PSR sort gate)” value is reported as “low polyreactivity”.
In the case of “QVQLVESGGGLVQAGGSLRLSCAASGSTVEYNAMGGYRPATGKERELVAAITSGGSTTYADSVKGRFTISRDNAKNTVYLQMNSLKPEDTAVYYCAAVGRRVSAWYYYWGQGTQVTVSS”, the “polyreactivity (PSR sort gate)” value is reported as “high polyreactivity”.
In the case of “QVQLVESGGGLVQAGGSLRLSCAASGRILAYNVMGWYRQAPGKEREFVASIRRTGVRTYYADSVKGRFTISRDNAKNTVYLQMNSLKPEDTAVYYCNAANFNFWDYYYWGQGTQVTVSS”, the “polyreactivity (PSR sort gate)” value is reported as “low polyreactivity”.
With “QVQLVESGGGLVQAGGSLRLSCAASGRIFRFYAMGWYRKAPGKERELVAAISSSGVRTYYADSVKGRFTISRDNAKNTVYLQMNSLKPEDTAVYYCAKRTVWWSNWHYYPPTYNYWGQGTQVTVSS” the “polyreactivity (PSR sort gate)” value was “high polyreactivity”.
With “QVQLVESGGGLVQAGGSLRLSCAASGFTLQGYAMGWYRQAPGKERELVAAIRWIGTSTYYADSVKGRFTISRDYAKNTVYFQMNSLKPEDTAVYYCAAYRYNTPFGYWGQGTQVTVSS” the “polyreactivity (PSR sort gate)” value was “high polyreactivity”.
With “QVQLVESGGGLVQAGGSLRLSCAPSGIIFPTYAMGWYRQAPGKERELVAAIRWNGGSTYYADSVKGRFTISRDNAKNTVFLQMTILKPEDTAVYYCAAGYRGSYKYYYWGQGTQVTVSS” the “polyreactivity (PSR sort gate)” value was “high polyreactivity”.
In the case of “QVQLVESVGGIVQAGGSLRLSCAASGSIINWYAMGWYRQAPGKERELVAAISSSGSTNYADSVKGRFTISRDNAKNTVYLQMNSLKPEDTAVYYCNADEYYLNNYNYGYWGQGTQVTVSS”, the “polyreactivity (PSR sort gate)” value is reported as “low polyreactivity”.
In the case of “QVQLVESGGGLVQAGGSLRLSCAASGRTFGINAMGWYRQAPGKDRELVAAIRTGGSTYYADSVKGRFTISRDNAMNTVYLQMNSLKPEDTAVYYCAAKAYRRYTIPPYGYWGQGTQVTVSS”, the “polyreactivity (PSR sort gate)” value is reported as “high polyreactivity”.
